Changes are numbered by the printed parent chain.
B1: Mab 4A10-3 (antibody, human IgG4 S228P, kappa, F234A L235A, V domains shown)
VH: QVQLVQSGAEVKKPGSSVKVSCKASGYAFTSFLIEWVRQAPGQGLEWMGTSNPRTGGRKYKEKFRGRVTITADKSTSTAYMELSSLRSEDTAVYYCAREFFDYWGQGTTVTVSS
VL: DIQMTQSPSSLSASVGDRVTITCRASKSISKYTAWYQQKPGKAPKLLIYAGSKLHWGVPSRFSGSGSGTDFTLTISSLQPEDFATYYCQQHNEYPYTFGGGTKVEIKR
B2: Mab 3D8 (antibody, human IgG4 S228P, kappa, F234A L235A, V domains shown)
VH: B1 VH with R58T
VL: B1 VL with W56S
B3: Mab L2.2-4 (antibody, human IgG4 S228P, kappa, F234A L235A, V domains shown)
VH: B1 VH
VL: B1 VL with H55R, W56S
B4: Mab Combi11 (antibody, human IgG4 S228P, kappa, F234A L235A, V domains shown)
VH: B1 VH with G57R, R58T, E62S
VL: B1 VL with L54R
B5: Mab 34A9 (antibody, mouse IgG1, kappa, V domains shown)
VH: QVQLKQSGAELVRPGTSVKVSCKASGYAFTNFLIEWLKQRPGQGLEWIGTINPETGGTKYNEKFRGKATLTADKSSSTAYMQLNSLTSDDSAVYFCVREFFDYWGQGTSLTVSS
VL: ETTVTQSPSYLAASPGETITINCRASKSISKYLAWFQEKPGKTNKLLIYAGSTLHSGIPSRFSGSGSGTDFTLTISSLEPEDFAMYYCQQHNEYPYTFGGGTKLELKR
B6: Fab 1G9 (Fab, V domains shown)
VH: B5 VH with N31S, E54R
VL: ETTVTQSPSYLAASPGETITINCRASKSISKYLAWFQEKPGKTNKLLIYAGSKLHSGIPSRFSGSGSGTDFTLTISSLEPEDFAMYYCFQHNEYPYTFGGGTKLELK
notes: also called mouse 1G9; mouse Fab 1G9
B7: Mab 1G9 (antibody, mouse IgG1, kappa, V domains shown)
VH: B5 VH with N31S, E54R
VL: B5 VL with T53K, Q89F

How the values were obtained:
human ferroportin 1 [1] = molecular target: T1, human ferroportin 1 (human, UniProt Q9NP59 1-571); test: cell-based or functional assay
T1 sequence: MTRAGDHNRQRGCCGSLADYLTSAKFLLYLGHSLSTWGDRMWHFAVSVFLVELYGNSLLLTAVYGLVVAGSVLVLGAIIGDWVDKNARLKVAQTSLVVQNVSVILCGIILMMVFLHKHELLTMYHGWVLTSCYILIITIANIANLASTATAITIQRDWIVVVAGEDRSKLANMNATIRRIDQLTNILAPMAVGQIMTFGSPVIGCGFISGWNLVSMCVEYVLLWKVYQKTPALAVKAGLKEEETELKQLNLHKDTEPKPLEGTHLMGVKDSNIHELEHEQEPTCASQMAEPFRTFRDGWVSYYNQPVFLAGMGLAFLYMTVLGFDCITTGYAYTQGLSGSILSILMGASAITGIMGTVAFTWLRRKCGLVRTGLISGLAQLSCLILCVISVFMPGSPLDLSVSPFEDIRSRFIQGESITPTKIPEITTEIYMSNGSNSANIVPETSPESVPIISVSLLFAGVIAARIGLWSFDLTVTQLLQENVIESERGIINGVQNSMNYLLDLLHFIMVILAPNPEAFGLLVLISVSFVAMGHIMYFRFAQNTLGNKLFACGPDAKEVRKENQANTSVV

FPN1-GFP [2] = molecular target: T2, FPN1-GFP (human, UniProt Q9NP59 1-571, A GFP reporter is fused to the C terminus of FPN1. Its letters are not given, so it is left out.); test: cell-based or functional assay
T2 sequence: T1 sequence

human ferroportin 1 [3] = molecular target: T1, human ferroportin 1; test: inhibition of 30 nM biotinylated hepcidin binding to FPN/293 cells, ELISA read-out; antibody at 125 nM; mean
human ferroportin 1 [4] = molecular target: T1, human ferroportin 1; test: inhibition of 30 nM biotinylated hepcidin binding to FPN/293 cells, ELISA read-out; antibody at 500 nM; mean
human ferroportin 1 [5] = molecular target: T1, human ferroportin 1; test: inhibition of 30 nM biotinylated hepcidin binding to FPN/293 cells, ELISA read-out; antibody at 7.8 nM; mean
human ferroportin 1 [6] = molecular target: T1, human ferroportin 1; test: inhibition of 30 nM biotinylated hepcidin binding to FPN/293 cells, ELISA read-out; antibody at 2000 nM; mean
human ferroportin 1 [7] = molecular target: T1, human ferroportin 1; test: inhibition of 30 nM biotinylated hepcidin binding to FPN/293 cells, ELISA read-out; antibody at 31.25 nM; mean
FPN1-GFP [8] = molecular target: T2, FPN1-GFP; test: cell-based or functional assay; remark: listed apart in the source
FPN1-GFP [9] = molecular target: T2, FPN1-GFP; test: SPR (Biacore T100) at 37 °C; FPN1-GFP captured on rabbit anti-GFP antibody; KD of Fab 1G9 against KD of Fab 34A9

| Absolute IC50 (FPN1-GFP [2]) | Relative IC50 (FPN1-GFP [2]) | Top % Inhibition (hepcidin-25-induced internalization and degradation of FPN1-GFP) (FPN1-GFP [2]) | EC50 (nM); inhibition of hepcidin induced ferritin increase in Caco-2 cells (human ferroportin 1 [1]) | % Inhibition (human ferroportin 1 [3]) | % Inhibition (human ferroportin 1 [4]) | % Inhibition (human ferroportin 1 [5]) | % Inhibition (human ferroportin 1 [6]) | % Inhibition (human ferroportin 1 [7]) | Percent (%) Inhibition of Mature Human Hepcidin-induced Internalization and Degradation In Vitro; Mab at 7.4 nM (FPN1-GFP [8]) | Percent (%) Inhibition of Mature Human Hepcidin-induced Internalization and Degradation In Vitro; Mab at 22 nM (FPN1-GFP [8]) | Percent (%) Inhibition of Mature Human Hepcidin-induced Internalization and Degradation In Vitro; Mab at 67 nM (FPN1-GFP [8]) | Percent (%) Inhibition of Mature Human Hepcidin-induced Internalization and Degradation In Vitro; Mab at 200 nM (FPN1-GFP [8]) | Percent (%) Inhibition of Mature Human Hepcidin-induced Internalization and Degradation In Vitro; Mab at 600 nM (FPN1-GFP [8]) | also measured | Molecule |
| --- | --- | --- | --- | --- | --- | --- | --- | --- | --- | --- | --- | --- | --- | --- | --- |
| – | – | – | – | – | – | – | – | – | – | – | – | – | – | % Inhibition; ferritin in Caco-2 cells with 100 nM hepcidin; 6.25 µg/mL mIgG1 (human ferroportin 1 [1]): 0%; % Inhibition; ferritin in Caco-2 cells with 100 nM hepcidin; 12.5 µg/mL mIgG1 (human ferroportin 1 [1]): 0%; % Inhibition; ferritin in Caco-2 cells with 100 nM hepcidin; 25 µg/mL mIgG1 (human ferroportin 1 [1]): 7.2%; % Inhibition; ferritin in Caco-2 cells with 100 nM hepcidin; 50 µg/mL mIgG1 (human ferroportin 1 [1]): 0%; % Inhibition; ferritin in Caco-2 cells with 100 nM hepcidin; 100 µg/mL mIgG1 (human ferroportin 1 [1]): 3.5%; % Inhibition; ferritin in Caco-2 cells with 100 nM hepcidin; 200 µg/mL mIgG1 (human ferroportin 1 [1]): 11.6%; Ferritin (ng)/ protein (µg); Caco-2 cells with 100 nM hepcidin; 6.25 µg/mL mIgG1 (human ferroportin 1 [1]): 10.4 ng/µg; Ferritin (ng)/ protein (µg); Caco-2 cells with 100 nM hepcidin; 12.5 µg/mL mIgG1 (human ferroportin 1 [1]): 10 ng/µg; Ferritin (ng)/ protein (µg); Caco-2 cells with 100 nM hepcidin; 25 µg/mL mIgG1 (human ferroportin 1 [1]): 9.6 ng/µg; Ferritin (ng)/ protein (µg); Caco-2 cells with 100 nM hepcidin; 50 µg/mL mIgG1 (human ferroportin 1 [1]): 10.1 ng/µg; Ferritin (ng)/ protein (µg); Caco-2 cells with 100 nM hepcidin; 100 µg/mL mIgG1 (human ferroportin 1 [1]): 9.78 ng/µg; Ferritin (ng)/ protein (µg); Caco-2 cells with 100 nM hepcidin; 200 µg/mL mIgG1 (human ferroportin 1 [1]): 9.4 ng/µg | Mouse IgG1, a negative control (antibody) |
| 5.7 nM | 4.7 nM | 85.9% | 37 nM | 59.3% | 84.9% | 5.4% | 95.3% | 13.4% | – | – | – | – | – | – | B1 |
| 13.7 nM | 10.2 nM | 86.8% | 360 nM | – | – | – | – | – | 28.1% | 50.2% | 55.7% | 63.8% | 66.4% | – | B2 |
| 6.2 nM | 4.8 nM | 81.6% | 193 nM | 76.5% | 99.8% | -0.1% | 85.1% | 27.5% | – | – | – | – | – | – | B3 |
| 3.8 nM | 3.7 nM | 92.6% | 28 nM | 88.4% | 81.6% | 18.7% | 79.9% | 32.1% | – | – | – | – | – | – | B4 |
| – | 58.9 nM | 55.2% | – | – | – | – | – | – | 4.8% | 14.1% | 23.6% | 30.8% | 39% | – | B5 |
| – | – | – | – | – | – | – | – | – | – | – | – | – | – | fold improvement in binding affinity against Fab 34A9 (FPN1-GFP [9]): ~5 fold | B6 |
| 18.8 nM | 9.2 nM | 69% | – | – | – | – | – | – | 24.3% | 49.9% | 61.8% | 62.4% | 67.9% | – | B7 |

From patent publication EP2373335B1 (Eli Lilly and Company, dated 2016)
